Data reported in US20040043420A1, “Method of identifying conformation-sensitive binding peptides and uses thereof” (priority 2003, published 2004).

Experiments:
[1] = target: T1, androgen receptor (Homo sapiens, UniProt P10275); format: cell-based; set-up: expressed in transfected cells
T1 sequence (P10275 1-920): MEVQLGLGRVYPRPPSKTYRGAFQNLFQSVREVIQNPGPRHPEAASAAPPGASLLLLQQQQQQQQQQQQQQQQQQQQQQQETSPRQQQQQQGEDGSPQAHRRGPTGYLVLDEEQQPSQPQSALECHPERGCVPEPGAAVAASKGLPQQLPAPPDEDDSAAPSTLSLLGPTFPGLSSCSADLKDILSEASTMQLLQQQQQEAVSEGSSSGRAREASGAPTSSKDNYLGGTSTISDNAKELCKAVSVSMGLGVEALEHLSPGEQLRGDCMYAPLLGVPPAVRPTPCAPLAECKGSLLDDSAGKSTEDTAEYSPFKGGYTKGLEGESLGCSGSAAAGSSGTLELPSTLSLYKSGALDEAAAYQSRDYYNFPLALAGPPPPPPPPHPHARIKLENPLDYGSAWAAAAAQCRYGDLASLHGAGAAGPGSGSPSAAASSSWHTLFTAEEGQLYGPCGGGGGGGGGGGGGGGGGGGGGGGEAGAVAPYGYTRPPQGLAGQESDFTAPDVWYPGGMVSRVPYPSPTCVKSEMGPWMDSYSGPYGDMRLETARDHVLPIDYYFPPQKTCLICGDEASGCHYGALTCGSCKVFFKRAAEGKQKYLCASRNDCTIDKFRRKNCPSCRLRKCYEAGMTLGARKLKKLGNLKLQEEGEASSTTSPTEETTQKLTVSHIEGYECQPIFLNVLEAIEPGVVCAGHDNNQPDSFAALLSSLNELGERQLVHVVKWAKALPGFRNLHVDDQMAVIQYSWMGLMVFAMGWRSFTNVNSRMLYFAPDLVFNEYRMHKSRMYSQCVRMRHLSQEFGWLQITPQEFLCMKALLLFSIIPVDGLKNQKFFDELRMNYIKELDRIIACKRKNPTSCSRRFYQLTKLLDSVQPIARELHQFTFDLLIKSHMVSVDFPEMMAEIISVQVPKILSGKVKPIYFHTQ
Description: We used a mammalian two-hybrid system to determine specificities of the AR-binding peptides previously identified, through screening of the aforementioned yeast library, as ligand-dependent in their binding activity. Ligand was provided to the cells so the interaction could be observed. The human hepatoma cell line, Huh-7, was used as the recipient of two-hybrid vectors, pM and pVP16 (Clontech) (FIGS. 6A and 6B), containing fusions with peptide and AR, respectively. According to Clontech literature, the Clontech vectors pM and VP16 generate fusions of protein X with the GAL4 DNA-BD and fusions of protein Y with the VP16AD, in the Mammalian MM Two-Hybrid Assay Kit (#K1602-1). (Note: pM and VP16 contain unique cloning sites in the same order and reading frame as the DNA-BD and AD, respectively, vectors in the yeast […] Two-Hybrid Systems.) A third vector, pG5CAT, provides a CAT reporter gene under the control of a GAL4-responsive element and minimal promoter of the adenovirus E1b. The three vectors are cotransfected into any suitable mammalian host cell line by standard methods. The interaction between proteins X and Y is then assayed by measuring CAT gene expression by any standard method. In the absence-of activation (i.e., no protein-protein interaction), the minimal E1b promoter will not express significant levels of CAT.
Briefly, cells are seeded in a 24-well culture plate to a density of 50-80% confluence in phenol red-free media containing charcoal-dextran stripped fetal bovine serum (10%). Following incubation overnight, cells are transfected with plasmids pM-peptide, pVP16-AR, pCMV-b-gal, and p5XGAL-Luc3 DNAs using lipofectamine 2000 (LifeTech) according to the manufacturer's protocol. Transfections are allowed to proceed for 6 hours and the transfection media is aspirated and replaced with recovery media for 18 hours. Following the recovery period, cells are treated with compound for 24 hours prior to cell harvesting. Cells are washed with PBS and then lysed using the lysis buffer from the Galacto-Light Plus β-galactosidase assay kit (Tropix). Assays for luciferase and β-galactosidase were performed as described by the manufacturer. Peptide/AR interactions are described in terms of the luciferase activity normalized for transfection efficiency using β-galactosidase activity (see FIG. 4A). Two types of useful information arose from these methods: 1) we generated a panel of useful peptide probes to analyze the conformational state of AR, and 2) we “fingerprinted” AR modulators with respect to AR conformation (FIG. 4B). […] FIG. 4B is the converse of 4A. It compares the ability of six ligands (DHT, MPA, CYP, RU486, FLUT and DHEAs to interact with AR in the presence of each of four peptides (D30, 5G11, B8H3 and […]). Thus, it is a “fingerprint” of each of the six ligands using a four peptide panel. (Note that “1269” and D30″ refer to the same peptide.)

[2] = target: T1, androgen receptor; assay: Yeast two-hybrid screening of unbiased X15 peptide library, ligand-induced β-galactosidase activity (FIG. 3, Table 503); format: cell-based; set-up: expressed in transfected cells; host or cells: Saccharomyces cerevisiae PJ69-4α
Description: Our library contained predominantly 15 random amino acid residues/peptide in order to identify motifs that might interact with nuclear receptor domains. If ligand is provided to the cells, one can screen for peptides that interact with the ligand-bound receptor. […] Included at the ends of the oligonucleotide were the synthetic restriction endonuclease cleavage sites, EcoRI or Mfe I (5′ end) and Sal I (3′ end). Oligonucleotides were annealed, then cleaved with excess restriction endonuclease and purified on agarose gels. The purified set of oligonucleotides was subcloned as an in-frame carboxy-terminal fusion to a Gal4 DNA binding domain (plasmid vector pMA424 derivative). […] The transformation mix was divided and grown on plates of selective media containing ligand and 25 mM 3-aminotriazole at 30° C. until colonies appeared in 3-7 days. […] Dihydrotestosterone (DHT) and medroxyprogesterone (MPA) were added to the media at 100 nM to identify peptides that interact with the receptor in the presence of ligand. After colonies appeared they were picked and dispersed into individual wells of a 96-well plate containing rich media (YPD).
To determine ligand dependence, two microliter aliquots were removed from the cell suspension, and arrayed and spotted onto each of two rectangular agar plates, one with 100 nM ligand and one without ligand. Growth was monitored daily.
A secondary test of ligand dependent activation was performed using the integrated GAL4-driven lacZ gene. Cell suspensions of the initial positive clones were diluted 20-fold into 20 microliters of rich media in a microplate and grown overnight at 30° C. in the presence and absence of ligand. Microplates were centrifuged for 5 minutes at 3000 rpm in a swinging table top centrifuge to pellet the yeast cells, and the overlying media was aspirated. […] An OD650 density determination was made to normalize the β-galactosidase activity. β-galactosidase activity was monitored following the addition of buffer containing chlorophenol red-1-galactopyranoside (CPRG) (Boehringer Mannheim) substrate at a final concentration of 0.5 mM. […] The maximum slope value of this measurement was normalized to cell density from the initial OD650 value, and the relative ligand dependence of β-galactosidase was determined by comparing the values plus and minus ligand.
In FIG. 3, all of these ligands were tested. The plasmids from true positives were extracted using standard yeast extraction protocols and re-transformed to verify the positive phenotype.

[3] = target: T1, androgen receptor; format: cell-based; set-up: expressed in transfected cells; remark: listed apart in the source
[4] = target: T2, ER α, P03372; assay: peptide probe binding to ERα, all modulators
T2 chain: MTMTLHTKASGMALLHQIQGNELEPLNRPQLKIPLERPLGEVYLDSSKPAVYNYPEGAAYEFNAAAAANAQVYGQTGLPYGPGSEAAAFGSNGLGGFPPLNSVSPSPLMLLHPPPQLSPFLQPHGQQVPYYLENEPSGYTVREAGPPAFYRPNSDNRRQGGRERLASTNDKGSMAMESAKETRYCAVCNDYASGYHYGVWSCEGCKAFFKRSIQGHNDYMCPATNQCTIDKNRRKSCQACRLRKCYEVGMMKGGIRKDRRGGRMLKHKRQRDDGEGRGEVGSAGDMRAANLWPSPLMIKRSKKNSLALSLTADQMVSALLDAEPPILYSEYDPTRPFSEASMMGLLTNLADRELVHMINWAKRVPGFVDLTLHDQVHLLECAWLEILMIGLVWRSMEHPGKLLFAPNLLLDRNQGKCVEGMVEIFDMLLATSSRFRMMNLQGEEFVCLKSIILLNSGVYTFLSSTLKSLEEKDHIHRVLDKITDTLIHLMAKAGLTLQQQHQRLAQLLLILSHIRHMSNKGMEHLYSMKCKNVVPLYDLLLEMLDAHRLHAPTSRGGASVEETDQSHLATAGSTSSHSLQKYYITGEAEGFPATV

[5] = target: T3, ER β, Q92731; assay: peptide probe binding to ERβ, 17β-Estradiol
T3 chain: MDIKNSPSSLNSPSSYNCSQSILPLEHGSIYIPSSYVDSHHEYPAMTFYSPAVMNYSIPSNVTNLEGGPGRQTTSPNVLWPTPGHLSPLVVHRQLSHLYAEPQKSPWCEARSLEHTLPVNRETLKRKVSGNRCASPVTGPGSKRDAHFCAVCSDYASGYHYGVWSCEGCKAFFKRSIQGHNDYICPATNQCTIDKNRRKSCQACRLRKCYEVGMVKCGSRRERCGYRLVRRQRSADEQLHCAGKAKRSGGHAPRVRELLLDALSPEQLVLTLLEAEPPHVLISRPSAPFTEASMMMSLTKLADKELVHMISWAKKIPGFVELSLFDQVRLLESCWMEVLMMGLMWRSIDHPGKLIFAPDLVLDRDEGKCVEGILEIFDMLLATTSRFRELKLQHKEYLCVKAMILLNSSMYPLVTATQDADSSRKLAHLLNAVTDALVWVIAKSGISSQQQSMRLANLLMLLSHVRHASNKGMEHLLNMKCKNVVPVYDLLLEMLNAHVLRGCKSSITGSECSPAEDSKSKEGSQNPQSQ

[6] = target: T2, ER α, P03372; assay: peptide probe binding to ERα, 17α-Estradiol
[7] = target: T3, ER β, Q92731; assay: peptide probe binding to ERβ, Estriol
[8] = target: T2, ER α, P03372; assay: peptide probe binding to ERα, 4-OH Tamoxifen
[9] = target: T3, ER β, Q92731; assay: peptide probe binding to ERβ, Diethylstilbesterol
[10] = target: T2, ER α, P03372; assay: peptide probe binding to ERα, GW7604
[11] = target: T2, ER α, P03372; assay: peptide probe binding to ERα, Clomiphene
[12] = target: T2, ER α, P03372; assay: peptide probe binding to ERα, Raloxifene
[13] = target: T2, ER α, P03372; assay: peptide probe binding to ERα, Diethylstilbesterol
[14] = target: T3, ER β, Q92731; assay: phage ELISA, ICI 182,780 1 µM
[15] = target: T3, ER β, Q92731; assay: peptide probe binding to ERβ, Buffer
[16] = target: T2, ER α, P03372; assay: peptide probe binding to ERα, Buffer
[17] = target: T3, ER β, Q92731; assay: phage ELISA, clomiphene 10 µM
[18] = target: T2, ER α, P03372; assay: peptide probe binding to ERα, 17β-Estradiol
[19] = target: T3, ER β, Q92731; assay: phage ELISA, 4-OH tamoxifen 1 µM
[20] = target: T2, ER α, P03372; assay: peptide probe binding to ERα, Estriol
[21] = target: T2, ER α, P03372; assay: peptide probe binding to ERα, Nafoxidine
[22] = target: T3, ER β, Q92731; assay: phage ELISA, raloxifene 1 µM
[23] = target: T2, ER α, P03372; assay: peptide probe binding to ERα, ICI 182,780
[24] = target: T3, ER β, Q92731; assay: peptide probe binding to ERβ, 17α-Estradiol
[25] = target: T3, ER β, Q92731; assay: peptide probe binding to ERβ, GW 7604
[26] = target: T3, ER β, Q92731; assay: peptide probe binding to ERβ, all modulators

Molecule: EFQQCMCAEVKSWLGGSLDLOPS* [B8E9]
- Mammalian Cell Specificity Graph (FIG. 4): CYP. [1]: 16.02 Relative Light Units
- Mammalian Cell Specificity Graph (FIG. 4): DHT ([1]; ligand DHT): 19.64 Relative Light Units
- Mammalian Cell Specificity Graph (FIG. 4): MPA ([1]; ligand MPA): 18.51 Relative Light Units
- Mammalian Cell Specificity Graph (FIG. 4): RU486 ([1]; ligand RU486): 10.1916 Relative Light Units
- Mammalian Cell Specificity Graph (FIG. 4): no compound ([1]; no compound): 0.2091 Relative Light Units
- Fold induction [2]: 4
- Yeast Specificity Graph (FIG. 3): CPA ([2]; ligand CPA): 0.5635
- Yeast Specificity Graph (FIG. 3): DHT ([2]; ligand DHT): 1.75
- Yeast Specificity Graph (FIG. 3): RU ([2]; ligand RU): 0.8
- Yeast Specificity Graph (FIG. 3): No Lig ([2]; no ligand): 0.4989
- Binding to the androgen receptor in the presence of agonists and known antagonists ([3]; ligand present (agonists, known antagonists)): displays binding
- Binding to the androgen receptor in the absence of ligand ([3]; no ligand): not in the absence of ligand

B1: #13 ER (peptide)
peptide: SRTWESPLGTWEWSR
modifications: not checked
- Equiv. [4]: 0%

B2: phage 4 (Table 2) (peptide)
peptide: SSNHQSSRLIELLSR
modifications: not checked
- Equiv. [5]: 100%
- Equiv. [6]: 53%
- Equiv. [7]: 81%
- Equiv. [8]: 0%
- Equiv. [9]: 68%
- Equiv. [10]: 0%
- Equiv. [11]: 0%
- Equiv. [12]: 0%
- Equiv. [13]: 71%
- phage ELISA grade [14]: 0
- Equiv. [15]: 0%
- Equiv. [16]: 0%
- phage ELISA grade [17]: 0
- Equiv. [18]: 100%
- phage ELISA grade [19]: 0
- Equiv. [20]: 65%
- Equiv. [21]: 0%
- phage ELISA grade [22]: 0
- Equiv. [23]: 0%
- Equiv. [24]: 44%
- Equiv. [25]: 0%

B3: α/β II (peptide)
peptide: SAPRATISHYLMGG
modifications: not checked
- Equiv. [26]: 0%
